The record followed here is patent US20110015136A1.

In this test the target is human membrane attack complex (MAC), C5b-9 complex (human) (UniProt P01031). The experiment in a line: cell-based or functional assay.

B1: human CD59, glycosylphosphatidylinositol (GPI)-anchored membrane protein (protein, UniProt P13987 26-102, looked up)
chain: LQCYNCPNPTADCKTAVNCSSDFDACLITKAGLQVYNKCWKFEHCNFNDVTTRLRENELTYYCCKKDLCNFNEQLEN
modifications: GPI anchor at Asparagine 77 (mature numbering)
Molecule B1 returned a complement mediated cell lysis (PI uptake, FACS; hepa-1c1c7 cells, 1000 vp/cell AdCAGCD59, 1% NHS) of 12.3%; a fold reduction of complement mediated cell lysis of 8 fold; an inhibition of cell lysis at 250 vp/cell of AdCAGCD59 of more than 50%; an inhibition of cell lysis at 500 vp/cell of AdCAGCD59 of more than 70%. The reduction in MAC immunofluorescence intensity on corneal endothelium is 86%, the reduction in MAC immunofluorescence on eyecups at 7.5 min NHS treatment worked out at 68%, the reduction in MAC immunofluorescence on eyecups at 15 min NHS treatment was determined as 56% and the reduction in mean MAC immunofluorescence intensity on RPE of eyecup tissues was found to be 55%.
